The record followed here is patent publication EP4810516A1.

In the assay the target is γ9δ2 TCR on human γ9δ2 T cells (human) (UniProt Q99603). As to the kind of experiment: FACS, serially diluted antibody on γ9δ2 T cells, anti-human Fc secondary.
γ9δ2 TCR on human γ9δ2 T cells (human), sequence (Q99603 21-122, stated change not applied, chain 1 of 2): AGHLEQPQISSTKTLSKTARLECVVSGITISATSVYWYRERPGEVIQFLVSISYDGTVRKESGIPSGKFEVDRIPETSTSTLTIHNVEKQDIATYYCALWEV
γ9δ2 TCR on human γ9δ2 T cells (human), sequence (A0JD36 20-115, stated change not applied, chain 2 of 2, further chain): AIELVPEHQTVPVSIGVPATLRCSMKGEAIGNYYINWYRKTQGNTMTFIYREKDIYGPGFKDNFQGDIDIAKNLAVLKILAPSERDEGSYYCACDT

B1: SDP01369 (antibody, human IgG1, kappa, V domains shown)
VH: EVQLVESGGGLVKPGGSLRLSCAASGFTFSSYAMSWVRQAPGKRLEWVASISSGGSTYYPDSVKGRFTISRDNAKNSLYLQMNSLRAEDTAVYYCARDGYPPFDYWGQGTTVTVSS
VL: DIQMTQSPSSVSASVGDRVTITCKASQNVGTNVAWYQQKPGKAPKALIYSASYRYSGVPSRFSGSGSGTDFTLTISSLQPEDFATYYCQQYNSFPLTFGQGTKLEIKR
Turning to B1, the EC50 turned out to be 1.74 nM and the Max MFI came to 15000 MFI.
